Results taken from the supplement of paper PMC11780869.

Test system: Bacillus subtilis
Assay: cleaved RNA product abundance (RNA/gDNA barcode ratio) relative to median wild-type variant (ratio to wild type); higher = more accumulation of the downstream cleavage product
Summary of the method: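 Sequencing of barcodes from gel-selected, reverse-transcribed cleaved RNA and from genomic DNA, with UMI collapsing, yielded a per-construct RNA:gDNA ratio. Scaled to the median construct with the unmutated site, this ratio is the cleaved product abundance. The barcoded reporters (truncated aprE or tetM mRNAs with mutagenized RNase Y cleavage-site windows) were integrated into the B. subtilis chromosome, and cultures grew in LB at 37°C from OD600 0.0003 to 0.3.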

[1] = experiment (reporter, strain, medium): exp 8a: truncated aprE reporter, strain BJT201 with 2% xylose (RNase J1 expressed), cleavage site: glnRA (positions -5 to +31 mutated)
[2] = experiment (reporter, strain, medium): exp 2b: truncated aprE reporter, strain BJT200, cleavage site: cggR-gapA (positions -7 to +36 mutated)
[3] = experiment (reporter, strain, medium): exp 4a: truncated aprE reporter, strain BJT201 with 2% xylose (RNase J1 expressed), cleavage site: cggR-gapA (positions -7 to +36 mutated)

| Sequence | cleaved RNA product abundance [1] | cleaved RNA product abundance [3] | other results |
| --- | --- | --- | --- |
| CGACATGTCCCGCTTCTTTCATTAATTCGTTAGCAACTGTTTTGCTATATACATTTACCATTTAAGAGGAGGAAT | 1.22 |  |  |
| ACAGACGAAGGAGCCGCAAAGAAGTTATTAAGAGATGAATAGTCCCTCAATATAAATATCTCTCACTTATTTAAA |  | 0.136 | cleaved RNA product abundance [2]: 0.0992 |
| CGACATGTCCCGCTTCTTTCATTATTCGGTTAGCAACTGTTTTGCTATATACATTTACCTTTTAAGAGGAGGAAT | 1.73 |  |  |
| ACAGACGAAGGAGCCGCAAAGAAGTTATTAAGGGATGAATCTTCCCTCAATATAAATATCTCTCACTTATTTAAA |  | 1.05 |  |
| CGACATGTCCCGCTTCTTTCATTAATCCTTTAGCAACTGTTATGCTATATACATTTACCTTTTAAGAGGAGGAAT | 0.471 |  |  |
| ACAGACGAAGGAGCCGCAAAGAGGTTATTAAGGCATGAATAATCCCTCAATATAAATATCTCTCACTTATTTAAA |  |  | cleaved RNA product abundance [2]: 0.0794 |
| ACAGACGAAGGAGCCGCAAAGAAGTTATTAAGGGATGAATAATCCCTAATTATAAATATCTCTCACTTATTTAAA |  | 0.447 | cleaved RNA product abundance [2]: 0.365 |
| ACAGACGAAGGAGCCGCAAAGAAGTTATTAAAGGAAGAATAATCCCTCAATATAAATATCTCTCACTTATTTAAA |  | 0.112 | cleaved RNA product abundance [2]: 0.0711 |
| ACAGACGAAGGAGCCGCAAACAAGTTATTAAGGGCTGAATAATCCCTCAATATAAATATCTCTCACTTATTTAAA |  | 0.471 |  |
| CGACATGTCCCGCTTCTTTCATTAATCCGTGAGCAGCTGTTTTGCTATATACATTTACCTTTTAAGAGGAGGAAT | 0.231 |  |  |
| CGACATGTCCCGCTTCTTTCATTAATCCATTAGCAACTGTTTTACTATATACATATACCTTTTAAGAGGAGGAAT | 0.482 |  |  |
| CGACATGTCCCGCTTCTTTCATTACTCCGTTAGCAACTGTTTTGCTATATACATTTATCTTTTAAGAGGAGGAAT | 1.8 |  |  |
| ACAGACGAAGGAGCCGCAAAGAAGTGATTAAAGGATGAATAATCCCTCAATATAAATATCTCTCACTTATTTAAA |  | 0.19 |  |
| ACAGACGAAGGAGCCGCAAAGAAGTTATTAAGGGATGAATAATCCCACAATATACATATCTCTCACTTATTTAAA |  | 0.249 |  |
| ACAGACGAAGGAGCCGCAAAGAGGTTATTAATGGATGAATAATCCCTCAATATAAATATCTCTCACTTATTTAAA |  | 0.0978 | cleaved RNA product abundance [2]: 0.13 |
| ACAGACGAAGGAGCCGCGAAGAAGTTATTAAGGGATGAATAATTCCTCAATATAAATATCTCTCACTTATTTAAA |  | 0.684 |  |
| ACAGACGAAGGAGCCGCAAAGAAGTTATTAAGGGATGAATAATCCCTTAAAATAAATATCTCTCACTTATTTAAA |  | 0.862 |  |
| ACAGACGAAGGAGCCGCAAAAAAGTTATTAAGGGATGAATAATCCCTAAATATAAATATCTCTCACTTATTTAAA |  | 0.765 | cleaved RNA product abundance [2]: 0.57 |
| ACAGACGAAGGAGCCGCAAAGAAGTTACTAACGGATGAATAATCCCTCAATATAAATATCTCTCACTTATTTAAA |  | 0.162 | cleaved RNA product abundance [2]: 0.0838 |
| CGACATGTCCCGCTTCTTTCATTAATCCGTTAGATACTGTTTTGCTATATACATTTACCTTTTAAGAGGAGGAAT | 0.273 |  |  |
| ACAGACGAAGGAGCCGCAAAGAAGTTATTAAAGGATGAATAATCCCTCAATATAATTATCTCTCACTTATTTAAA |  | 0.161 |  |

| Sequence | cleaved RNA product abundance [1] | cleaved RNA product abundance [3] | other results |
| --- | --- | --- | --- |
| ACAGACGAAGGAGCCGCAAAGAAGTTATTAAGGGATGAATAATGCATCAATATAAATATCTCTCACTTATTTAAA |  | 0.159 |  |
| CGACATGTCCCGCTTCTTTCATTAATCCGTTAGCAACTGTTTTGCTATATACATTTACATTTTAAGAGGAGGAAT | 1.39 |  |  |
| ACAGACGAAGGAGCCGCAAAGAAGTTATTAAGGGATGACTAATCCCACAATATAAATATCTCTCACTTATTTAAA |  | 0.197 | cleaved RNA product abundance [2]: 0.157 |
| CGACATGTCCCGCTTCTTTCATTAATCCGTTAGCAACTGTGTTGCTATATACATTTACCGTTTAAGAGGAGGAAT | 0.537 |  |  |
| ACAGACGAAGGAGCCGCAAAGAAGTTATTAAGGGATGAATAATCCCTCATAATAAATATCTCTCACTTATTTAAA |  | 0.554 |  |
| CGACATGTCCCGCTTCTTTCATTAATCCGATAGCAACTGTTTTGCTATATACATTGACCTTTTAAGAGGAGGAAT | 0.721 |  |  |
| CGACATGTCCCGCTTCTTTCATTAATCCGTTAGCAAGTGATTTGCTATATACATTTACCTTTTAAGAGGAGGAAT | 1.25 |  |  |
| ACAGACGAAGGAGCCGCAAAGAAGTTGTTAAGGGATGAATAATCCCTCAAAATAAATATCTCTCACTTATTTAAA |  | 0.316 |  |
| ACAGACGAAGGAGCCGCAACGAAGTTATTAAGAGATGAATAATCCCTCAATATAAATATCTCTCACTTATTTAAA |  | 0.137 |  |
| CGACATGTCCCGCTTCTTTCATTAATCCGTTAGCAACTGTTTAGCTAAATACATTTACCTTTTAAGAGGAGGAAT | 0.212 |  |  |
| ACAGACGAAGGAGCCGCAAAGAAAATATTAAGGGATGAATAATCCCTCAATATAAATATCTCTCACTTATTTAAA |  | 0.697 |  |
| ACAGACGAAGGAGCCGCAAAGAAGTTATTAAGGGATGAAGAATCCCTCAATATCAATATCTCTCACTTATTTAAA |  | 0.0586 |  |
| ACAGACGAAGGAGCCGCAAACAAGTTATTAAGGGATGAATTATCCCTCAATATAAATATCTCTCACTTATTTAAA |  |  | cleaved RNA product abundance [2]: 0.669 |
| ACAGACGAAGGAGCCGCAAAGAAGTTATTAAGGGATTAATAATCACTCAATATAAATATCTCTCACTTATTTAAA |  | 0.129 |  |
| CGACATGTCCCGCTTCTTTCATTAATCCGTTAGGAACTGTTTTGCAATATACATTTACCTTTTAAGAGGAGGAAT | 0.342 |  |  |
| ACAGACGAAGGAGCCGCAAAGAAATTATTAAGCGATGAATAATCCCTCAATATAAATATCTCTCACTTATTTAAA |  | 0.121 | cleaved RNA product abundance [2]: 0.096 |
| CGACATGTCCCGCTTCTTTCATTAATCCGTTAGCAACTGTTTAGCAATATACATTTACCTTTTAAGAGGAGGAAT | 0.455 |  |  |
| ACAGACGAAGGAGCCGCAAAGAAGTTATTAAGGCATGAATTATCCCTCAATATAAATATCTCTCACTTATTTAAA |  | 0.132 | cleaved RNA product abundance [2]: 0.0689 |
| ACAGACGAAGGAGCCGCAAAGAAAGTTATTAAGGGATGAATAATCCCTCAATATAAATATCTCTCACTTATTTAA |  | 0.775 |  |
| CGACATGTCCCGCTTCTTTCATTAATACGTTAGCAACTGTTTTGCTATATAAATTTACCTTTTAAGAGGAGGAAT | 1.02 |  |  |
| ACAGACGAAGGAGCCGCAAAGAAGTTATTAAGGGATAAATAATCCCTCAATAAAAATATCTCTCACTTATTTAAA |  |  | cleaved RNA product abundance (experiment (reporter, strain, medium): exp 6: tetM reporter, strain 168, cleavage site: cggR-gapA (positions -7 to +36 mutated)): 0.148 |

| Sequence | cleaved RNA product abundance [1] | cleaved RNA product abundance [3] | other results |
| --- | --- | --- | --- |
| ACAGACGAAGGAGCCGCAAAGAAGTTATTAAAGGATGAATAATCCCTGAATATAAATATCTCTCACTTATTTAAA |  | 0.171 | cleaved RNA product abundance [2]: 0.133 |
| CGACATGTCCCGCTTCTTTCATTAATCCGTTAGAAACTGTTTTGCTATATTCATTTACCTTTTAAGAGGAGGAAT | 0.268 |  |  |
| ACAGACGAAGGAGCCGCAAAGAAGTTATTAAGGGATGAATAATCCCACAATATAAATATTTCTCACTTATTTAAA |  | 0.386 |  |
| ACAGACGAAGGAGCCGCAAAGAAGTTATTAAGGGATGAATAATCCATCAATATAAAAATCTCTCACTTATTTAAA |  | 0.145 |  |
| CGACATGTCCCGCTTCTTTCATTAATCCGTTAGCAACTGTTTTGCTATATACATCTACATTTTAAGAGGAGGAAT | 1.27 |  |  |
| CGACATGTCCCGCTTCTTTCATTAATCTGTTAGCAACTGTTATGCTATATACATTTACCTTTTAAGAGGAGGAAT | 0.799 |  |  |
| CGACATGTCCCGCTTCTTTCATTACTCCGTTAGCAACAGTTATGCTATATACATTTACCTTTTAAGAGGAGGAAT | 0.735 |  |  |
| CGACATGTCCCGCTTCTTTCATTAATCCGTTAGCAACTGTTTTACTATATACATGTACCTTTTAAGAGGAGGAAT | 0.471 |  |  |
| ACAGACGAAGGAGCCGCAAAGAAGTAATTAAAGGATTAATAATCCCTCAATATAAATATCTCTCACTTATTTAAA |  | 0.183 |  |
| ACAGACGAAGGAGCCGCATAGAAGTTATTAAGGGATGCATAATCCCTCAATATAAATATCTCTCACTTATTTAAA |  | 0.933 |  |
| ACAGACGAAGGAGCCGCAGAGAAGTTATTAAGGGCTGAATAATCCCTCAATATAAATATCTCTCACTTATTTAAA |  | 0.694 |  |
| ACAGACGAAGGAGCCGCAAAGAAGTTATGAAGGGATGCATAATCCCTCAATATAAATATCTCTCACTTATTTAAA |  | 0.542 |  |
| ACAGACGAAGGAGCCGCAAAGAAGTTATTTAGGAATGAATAATCCCTCAATATAAATATCTCTCACTTATTTAAA |  | 0.127 |  |
| CGACATGTCCCGCTTCTTTCATTATTCCGTTAGCAACTGTTTTGCTATTTACATTTACCTTTTAAGAGGAGGAAT | 0.131 |  |  |
| ACAGACGAAGGAGCCGCAAAGAAGTTATTATGGGATGAATAACCCCTCAATATAAATATCTCTCACTTATTTAAA |  | 0.194 |  |
| ACAGACGAAGGAGCCGCAAAGAATTTATCAAGGGATGAATAATCCCTCAATATAAATATCTCTCACTTATTTAAA |  | 0.377 | cleaved RNA product abundance [2]: 0.275 |
| ACAGACGAAGGAGCCGCAAAGAAGTTATTAAGGCATGAATAATCCCTCAATATAAATAGCTCTCACTTATTTAAA |  | 0.0902 | cleaved RNA product abundance [2]: 0.0721 |
| ACAGACGAAGGAGCCGCAAAGATGTTATTAAGGGGTGAATAATCCCTCAATATAAATATCTCTCACTTATTTAAA |  |  | cleaved RNA product abundance [2]: 0.656 |
| ACAGACGAAGGAGCCGCAAAGAAGTTATTAAGCGATGAATAATCCCTCTATATAAATATCTCTCACTTATTTAAA |  | 0.0811 |  |
